Data taken from article PMC5045792.

Columns and labels:
[1] = target: ToxR-TM-MBP chimera with the transmembrane domain of the FtsI homolog annotated for S. pyogenes (S. pyogenes)
[2] = target: ToxR-TM-MBP chimera with the transmembrane domain of the FtsI homolog annotated for S. pneumoniae (S. pneumoniae); test: TOXGREEN

Substance | GFP expression, percent of GpA [1] | GFP expression, percent of GpA [2]
ToxR-TM-MBP chimera with the transmembrane domain of the FtsI homolog annotated for S. pyogenes (domain or fragment) | > 100 % of GpA | –
ToxR-TM-MBP chimera with the transmembrane domain of the FtsI homolog annotated for S. pneumoniae (domain or fragment) | – | > 100 % of GpA
